Assay results as given in the NTF2 design screens of Basanta et al. (2020).

Test: protease stability score; higher = more stable; yeast display proteolysis, trypsin and chymotrypsin;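 further: log10 excess protease needed over predicted unfolded state with 0 meaning unfolded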
Sequence “DETKVKKLVVHVAQVLMSGQVDEAQKFLNPDVEFHAGNVTLHGPEQVLEYYKKIQKRGVEFHVKEAEVHGNTVEVKYDVKFDGTEQTLKFKAEVKDTVVEKAELEIDEDYVRAVQKG” has a protease stability score of 1.11.
Sequence “DETLFELIQRLIEAYKHGNPDELKKQADPNARVKVGDKELHGMEEIAKELVTQRKQQRLSYLSINNDDDPNHARVRFNVEVERNGQPRTKRFELRAETHNGRLISMEVQSRR” has a protease stability score of 0.232.
For “DETNERVARTMLEVRQHNNPDDLRKMLDPNVKVVIGDKEVHGREDYINKFEERVKHIRVDVKVDHIDSQGNRLDIDVTFTMNVNGQPVKDRMRFVIQITNGKIEEVDVSVPEEELKKQEK”, the protease stability score was 0.909.
“DETNKEQFDRLLKHQKTGNPQEVVKNADPNVKMRIGNKTWHGRENINQDVERRRRKMRIDINVKSVDSHGEELRIDARVQYNINGKPLEDDVVIIAEVHNGKFKHIEVRIPERMQKKLER” gave a protease stability score of 0.637.
For “DETNKKAVEDYIKALETGDDEMAKRLMDKNATVEIGDKEVTGREEIHEQFKRDVKEIRVRIDRVHVKDQGDKVNLRAREKQTVNGHPISFEFQVEFHAHNGKIKHVEWQIDKDQLRKLKG”, the protease stability score was 0.119.
For “DETNLKKVLDVLKDNDEKKLEELADEDAKNDIGNFDYRGRRQFEEAMRHRRKMIDSLEVKSVRADGDKAEIDMSAVINGREVKASQMVKVHNGRIKSISVRFTDPDKEREADKKAQ”, the protease stability score was 0.023.
“DETNRKQASRVLENLQTGDPRQVSELVDPNARVTVGDKQVTGRENIMQRVKHELDQSRIQIDHYEIDDKGESADLRMTQQVDHNGNPTRTKYQVEVEAENGKIKEITIEERS” showed a protease stability score of -0.271.
“DETNVKNAEEWLRALQDNNSEQLRKLMDKDVRVEIGDDVIKGREDVVTNLIRKARELRFRIKVDKIEDDNGKVVVHAEATFTHNGKPDRVEVELVFSLDNGKIKEVVVKTDG” gave a protease stability score of 1.69.
“DETNVRSVERFVHALKQGDPDKLHRNADPNVKVQIGDKVIHGREELSKDQKRRNKSMRLSYKDYRNEDTNGNVIVHLTFTSERDGQPRENEYRAHITLNNGKIREVDMKSDG” gave a protease stability score of -0.288.
With “DETQDKKAERLVKKNNWDEMVRNADKDVRVQVGDYEVHGREDMKRLAKKFKDRYDHVKVDDVQVHNGRVNADMKATVDGHTIRFILQADIHNGRFKYMTLQARSSEQEKHLKRLFQ” the protease stability score was 0.475.
Sequence “DETQLRIASEFEEAVRRGNEEQAKRNVDPNARVRVGDTEVHGNEQIAKKIRQEVEHARVSVKSVTNHTDENRVVIDVEFEATHNGEPTSKKYQVNIEIRNGKIKEINYHDSK” has a protease stability score of -0.157.
Work on “DETQMDHIRRFFEAVVNGDPDELERQADPNVKFSVGNQQWHGENQLKKEAEKRRKEIRINIKSMEVRVHGDSVVVHIRQEVEVNGQPEDITFTMTVEVSNGKIKSVDVQMDQQEERNVQR” yielded a protease stability score of -0.342.
In the case of “DETQMKHLAEEFNKAQKRGNEEKLRELIDKDVTMKVGDKEVHGRERVADKMRKMIERADSISIRDVKSQGDRAEIDMEYRVDGRHRVVIVILRFSNGRIVYAEFQSS”, the protease stability score is reported as 1.08.
“DETQRAEEFFKRMQKLAHTNNFEHLANMADPNANFRVGDKTFHGRRDMIRQQKQIRERVDHVEYDVRRIDVHGNELDIKLEVNYDVNGKKDTRTVHYNAENNNGDVVISRVEYK” gave a protease stability score of 0.127.
“DETREAQEIAKRIHKAVEENDEKQLEDQMPPDASVEVGDKTIHGRSRIARELWEEVETADHVNVSITSIRVDGDKVHVDMRYQFDDNGDDDVKHQKAQYVRNGDHFVLKNVHRK” gave a protease stability score of -0.225.
In the case of “DETRMRELDKVFHHNDPDKMRENLDENVRMVVGDKSFTGRHQVQDWLKIFHDQVDHFEVESLTKEGNKIDVVYRAVVNGQEFRMRVDITVHNGRIKMIKVDFTNEDETRQFLEHIK”, the protease stability score is reported as 1.55.
Sequence “DETRQAKDMVSELRKALKQGDEDKAMKLADPNVRLDVGEKDLHGRERLKEWVTEIRDKYDRVDLKVTHVHVRGNKIVVHAEVVMRRNGHQKTMTLTIVVRLQGDHLHIVEITQR” has a protease stability score of 0.803.
“DETTEASKLLHRINTAWQTNDPDQFQEQFDENARAKVGDKTVHGRKNMNELLKRLVENVDHIDVQVVDFRVDGDKLVIYFRVQNEHNGKHEHDQYAIWAVDRNGHVRAIEWHES” gave a protease stability score of 0.272.
In the case of “DETTVHHILKNFNEAMEQGDPKQAMRLADKDVKLDVGDKRVSGSETLDTLVKNIRDQADTISVKTVHVDGDTAHAVLVIRINGKDVEFNVRIEVHNGRIKSLEMDPDKLKSAMK”, the protease stability score is reported as 0.852.
Work on “DETVEELIKRFMRAIKNNNPDELVRNADKDAKYDIGDKTIHGREQLHDHVEHLRDEMQIDYEVENLKVHNGRADVDVKNNNNHNGRPETKRLRLDVVVHNGKIKDVKFQDTR” yielded a protease stability score of 0.243.
Work on “DETVLQVVHRFLKAVETGDPKEVRKNADPNAKAVVGDQTVSGRETLAHQIEREREEMSFEWEKVTNDVQGEHVDVDFTMRMTHNGRPDRSRVRIKYQVHNGKLTYVRVTDDK” yielded a protease stability score of -0.149.
Sequence “DEVEKAKNLFDRLVRAFKNNNWKQFSDLADEDVRYVVGDKEWHGREQADEMFREMVEEIDHYDIHVKDIKFHNGKVDLKATASFSVNGKTHRFTVEWRVQMHNGHLRVKQVILK” has a protease stability score of 1.25.
With “DEVTRAEELLHEIQEAFRTGDEDQARRLADENVQIHVGDKFVRGRRDYVKRLKDEVDRVDHMEVHIKSVDVHGDKATMDYRVRVQFDGQSKERDVVMYAKISNGQLKVTSLTEK” the protease stability score was 0.012.
With “DHDAAHQFKKMLDALRTNDEEHARRMADPNAKFQIGDKTYKGMDTFIRQLVREAREIKIHIDDIKVHDKGDKAVLNVNVKFSKNGEPDSRVLNFEFRAHNGHLKEIVVRDDK” the protease stability score was 0.757.
“DHDAKKRIHQLWHALQTGNPDEVVKQVDKDVKVRVGEKDIHGRDQVREDVEREQKDMRVEYKSIRVEMNGDKARVEVHYQHERDGQPRTHRADYEIKWQNGKVKEMRASQKP” showed a protease stability score of -0.244.
“DHDALERFQEFLENLKSGNPHDLHNMLDKNASLQVGDKTVTGRDQIVDHWRRQREEWEVTYRSVDLKVSGDTVKADFDFQVDINGQPNRVSRQAHVKISNGKLKTLQYRVSEDVKRNIEG” showed a protease stability score of -0.254.
With “DHDALKRASQFLKAMEQGNEREAVRLVDENARVRYGDKQIHGNKQIRDWVRKMHEQARIRIEVTRVQATGDTVTVTAKVDVDVNGKPQTHDMVFRARVHNGHIKSAEFHFDEEFEKRMNS” the protease stability score was 1.32.
Sequence “DHDALRHATEILRARKTGDDKRIRELVDPNAHVVIGDKSLHGREQIVKFVTKENEEMSIQYRHVSTETRNGRVDIRMDADMRKNGTPDRVRQEMKAEFHNGRLQRMSVHDDK” has a protease stability score of -0.331.
Work on “DHDAVRQARELYKVWQTGDPDKVRNMLDPNVRFRIGDKEIRGRESFAEELITQIKQSHVEVRHYSANANGNNVKARANVVIHVNGRPHEFSFIFRARVENGKFKQISVQVDDDLLRKLES” yielded a protease stability score of 0.548.
Work on “DHDIRELFKRLVDAISTNDPQTMNNNMDKDVEARVGDQDYKGRENMAHELVKTREKIRLEMHLNSLNNEGDYVRVEVEQVLEDNGQPDRSVMDAEWRADNGRVQEYHVDEKP” yielded a protease stability score of -0.146.
Sequence “DHDKQEFWNHLVEIFKSGNEDDWRKNFDPNAKWHIGDKRVHGREEAVEDFRRRREELRQNIESFTVDARGDKVTVHQVFVVEINGHPRRMSVNIRAKVHNGQIKEMDVRLSDEDKKKEKG” has a protease stability score of 0.478.
Sequence “DHDLLTKIKTILELIKTGNFEEVRKNFDPNVDVHVGDKTIHGRERWAKELDKEVRELRWDIKIKRVKDRGDRAHFDMEATFEVNGRPANFRANMVVHMHNGRVKHMNIKIPEEDLKRQKS” has a protease stability score of 0.823.
With “DHDLNQQAQQWVRNFNNGDEDKLQDYADPNVRFQIGDEQVHGREEYKSRVKKKRKHARFRIRVREIDAQGEHVHVKADIIQNINGRPMDDHVIFHFEVRNGKLKSLKLRVDPEKQRELEK” the protease stability score was 0.417.
Work on “DHDLQKTWKDQAAEALQTGDPREFEKMVDENVNVIYGDKTYHGRKQASNLAQRLQKQIDHIRLHSVSIRGDEVNVDLTVNVNGTEMRYHMTARVHNGKVKELKFDPDFVRKAQK” yielded a protease stability score of 0.174.
For “DHDLVKHLESFIKNLQDGDDDKLAKYADPNAHIEVGDKVVSGRKQLQEEVRRQRKRMRISLDVKDVKAHNGQADVTFDQRVEVNGRPWQNRYTVIFFLHNGTLREARFDIPEREQRKLES”, the protease stability score was 0.189.
In the case of “DHDQRRQAKEMVHAMTKGDEDRLRELLDENAKADVGDSKVHGRTQFLRELRTTMEQSQLRLDSFDVKVKDGRVRMRFSFVEDHNGRPNHKNAELQLRLDNGKVQEVRQRDDG”, the protease stability score is reported as 0.539.
“DHEAEKRIKKWVDAIHTGDEEQLKRLADPNVKVNVGNYSVRGRENLADMVSRMRDEIRLTYRDVKMDVTGDHARMDADVERDHNGRPERFELKANFRWRNGKITEIDAHWHQ” showed a protease stability score of 1.42.
Work on “DHEAEKRWTKLQEAIKYNNPQEAKHQMDPNARVRVGDKEFHGMDDFAKYQLDHQRKIEVDRKVKKVDVKNGSVKVVQDVENNNNGTPSRHVMDLRVEVHNGHIRNVRAETDK” yielded a protease stability score of -0.295.
With “DHEAKDVFEELLRRMKSGDEDEMKKLVDKNVRYTVGDKTLHGQEEIARHWYEQVKDMRIDIKVKDIKVHNGRVDVKFTFRHEHNGNPDSDKRRVNVEARNGKMQAVDDQKDS” the protease stability score was 0.148.
“DHEAKEIAEKIQRALTSNDPDHLNRQLDPNVRLQIGDKEVEGRQEAHNWLQKVVDEQEISINISDINVNGNHIRIHAVVENQVNGRPFHYEVVIIIIIHNGRVRSQRYQLDEDQDRRIKQ” showed a protease stability score of 0.047.
“DHEALKVLHKFMEALNTGDPDQLNKNIDPNARFVVGDKTINGREQFREDQRRLKEQIRVYATIRTIRVEGDHANLTVEYEQDHNGKPDSNEVTVTAKLKNGKIQEVREDRKQ” gave a protease stability score of -0.18.
“DHEANQIAREFVKAIRTNNPTRASQNMDPNVRVTVGDHVFHGREEVKTWIHRLNKEARIDIHINTIESQGDNAKVVFKYRVEVDGRPDSRNVIVDVHAHNGKMKEVVYRVDEDEQHELKK” gave a protease stability score of 0.368.
In the case of “DHEAQENAKHFIDALHTNDPRQVVEMIDPNARVNVGDKQLRGDSQVRKWWRRQNEEIRMHVKVDDIKVKGNNAVAKFKMEITHDGTPNDNHAEMTVTFHNGRATDLKVDEDK”, the protease stability score is reported as 0.017.
For “DHEAQKALRDVIEAIRENNPDEVKKQLDKNATVRVGDKRLHGTEEQRREVQKKLDEIRIRYQDIKMETSGDTVRASIQFVENHNGEPQRDRVTASMSADNGRVKHFVVTETQ”, the protease stability score was -0.041.
Work on “DHEAREIVEEYLKAIERNNPKKAQELVDPNVHFHYGDKRLDGREDLNEKIHRETKHQRVDIKSVSIDVQGDKVDVKVDVVDVHNGQPERYTFEVTYTFKNGQIQNADQKESG” yielded a protease stability score of 1.02.
For “DHEARKLMKRFFSAINHGDPDQIRKNVDKDVKAQVGDKTVHGREEWVKWMTRRLDEIKMHYDVTTIDVQGDKVHAQAKVRYDVDGRPITDQVTFTARIENGKITSLSLRMDPENQQKIEK”, the protease stability score was 1.15.
Work on “DHEARKVVKRFWEAWETGDPEELNKQVDPNVHVQIGDTRLKGRDDVVRHLLEERHEMRVDLDSMDVKATNGQVNARATARADVNGQPVTFSMEFRFKVRNGKITHIDWQFSDEDHRKRKG” yielded a protease stability score of 0.81.
“DHEAVKLMERLIEALNTGDPDQLRRLADKDVRWRYGDKDVHGRESVVTQLKKRLEQSRFKVTDVDIKAQGDNVTADYRVIFEHNGKPDDVTVKVEAKVHNGRIKMMKIQTDK” showed a protease stability score of 0.623.
“DHEDAEKMKDLLTAEQQNDPDKVKEQADPNAQFRIGDQKVHGRNQYARIVKTLMERADVHILRIDNKDHNGQVHVSIDRVIDYNGRPKRDTETATARFHNGRLKELHIQFDPKKYQELKK” showed a protease stability score of 0.027.
“DHEDKERASQAIEAWNTGDPREFEKQFDPNARVHVGDRHIHGREQFEDEMKRHKDESRYEISLRNVTVDNGRIKLDVVLSVDENGRPETQHLKIDLELHNGRVVSMQFNHKK” showed a protease stability score of -0.209.
